The values that follow come from patent US20120316071A1 (published 2012).

Assay [1] concerns the target T1, rHuman ErbB2/Fc Chimera, CF (R&D Systems Cat#1129-ER) (human, UniProt P04626 23-652).
T1 construct: Bought recombinant protein; also called human epidermal growth factor 2 receptor; Fc part of the bought chimera not given
The assay is described as follows: ECL multispot (MSD) binding assay, antigens spotted on plate, 20 nM Fab.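 Further: fab incubated 1 h at 20 °C on antigen-spotted wells, bound Fab detected by TAG-labelled antibody, ratio of 4 or more over blank counted as a hit.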

Assay [2] has as its target T2, rHuman EGF R/Fc Chimera, CF (R&D Systems Cat#344-ER) (human, UniProt P00533 25-645).
T2 construct: Bought recombinant protein; also called epidermal growth factor receptor; Fc part of the bought chimera not given
The assay is described as above.

Assay [3] has as its target T3, rHuman HGF R/c-MET/Fc Chimera, CF (R&D Systems Cat#358-MT/CF) (human, UniProt P08581 25-932).
T3 construct: Bought recombinant protein; also called HGF R/Fc; hepatocyte growth factor receptor; Fc part of the bought chimera not given
Described as above.

Assay [4] deals with T4, rHuman Notch-1/Fc Chimera, CF (R&D Systems Cat#3647-TK) (human, UniProt P46531 19-526).
T4 construct: Bought recombinant protein; Fc part of the bought chimera not given
The assay is described as above.

The target of assay [5] is T5, rHuman CD44/Fc Chimera, CF (R&D Systems Cat#3660-CD) (human, UniProt P16070 21-220).
T5 construct: Bought recombinant protein; Fc part of the bought chimera not given
The assay is described as above.

In assay [6] the target is T6, rHuman IGF-1 sR, (IGF-1 sR), CF (R&D Systems Cat#391-GR) (human, UniProt P08069 31-932).
T6 construct: Bought recombinant soluble receptor; The column head prints only 'IGF-1'; also called insulin-like growth factor-1 soluble receptor
The description is as above.

Assay [7] addresses T7, rHuman P-Cadherin/Fc Chimera, CF (R&D Systems Cat#861-PC) (human, UniProt P22223 108-654).
T7 construct: Bought recombinant protein; Fc part of the bought chimera not given
Described as above.

The target in assay [8] is T8, rHuman Erythropoietin R/Fc Chimera, CF (R&D Systems Cat#963-ER) (human, UniProt P19235 25-250).
T8 construct: Bought recombinant protein; also called EPO R; Epo R; Fc part of the bought chimera not given
T8 sequence (looked up): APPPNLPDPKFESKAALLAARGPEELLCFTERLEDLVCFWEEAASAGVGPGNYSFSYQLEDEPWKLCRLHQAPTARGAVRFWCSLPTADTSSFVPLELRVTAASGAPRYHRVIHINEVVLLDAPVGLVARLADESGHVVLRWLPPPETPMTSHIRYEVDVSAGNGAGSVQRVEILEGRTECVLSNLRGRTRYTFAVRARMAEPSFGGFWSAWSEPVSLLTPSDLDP
The description is as above.

In assay [9] the target is T9, Recombinant Human DLL4 (R&D Systems Cat#1506-D4/CF) (human, UniProt Q9NR61 27-524).
T9 construct: Bought recombinant protein; also called delta-like protein 4; rHuman DLL4
Described as above.

The target of assay [10] is T10, rHuman HGF R/c-MET/Fc Chimera, CF (R&D Systems Cat#358-MT/CF) (human, UniProt P08581 25-932).
T10 construct: Bought recombinant protein; also called HGF R/Fc; hepatocyte growth factor receptor; Fc part of the bought chimera not given
The assay is described as follows: ECL multispot (MSD) assay, antigen spotted on plate, 20 nM Fab.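 Further: purified Fab bound to plate-spotted antigen for 1 h at 20 °C, labelled detection antibody added, ratio of antigen ECL signal to same-well blank, ratio ≥4 counted as binder.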

Assay [11] addresses T11, rHuman Notch-1/Fc Chimera, CF (R&D Systems Cat#3647-TK) (human, UniProt P46531 19-526).
T11 construct: Bought recombinant protein; Fc part of the bought chimera not given
The assay is described as above.

The target in assay [12] is T12, rHuman CD44/Fc Chimera, CF (R&D Systems Cat#3660-CD) (human, UniProt P16070 21-220).
T12 construct: Bought recombinant protein; Fc part of the bought chimera not given
Described as above.

Assay [13] addresses T13, rHuman IGF-1 sR, CF (R&D Systems Cat#391-GR) (human, UniProt P08069 31-932).
T13 construct: Bought soluble receptor; also called insulin-like growth factor-1 soluble receptor
The description is as above.

For assay [14], the target named is T14, rHuman P-Cadherin/Fc Chimera, CF (R&D Systems Cat#861-PC) (human, UniProt P22223 108-654).
T14 construct: Bought recombinant protein; Fc part of the bought chimera not given
Described as above.

Assay [15] addresses T15, rHuman Erythropoietin R/Fc Chimera, CF (R&D Systems Cat#963-ER) (human, UniProt P19235 25-250).
T15 construct: Bought recombinant protein; also called EPO R; EPO R/Fc; Fc part of the bought chimera not given
T15 sequence (looked up): T8 sequence (looked up)
The assay is described as above.

The target in assay [16] is T16, Recombinant Human DLL4 (R&D Systems Cat#1506-D4/CF) (human, UniProt Q9NR61 27-524).
T16 construct: Bought recombinant protein; also called delta-like protein 4; rHuman DLL4
Described as above.

In assay [17] the target is T17, rHuman ErbB2/Fc Chimera, CF (R&D Systems Cat#1129-ER) (human, UniProt P04626 23-652).
T17 construct: Bought recombinant protein; also called human epidermal growth factor 2 receptor; Fc part of the bought chimera not given
The assay is described as above.

In assay [18] the target is T18, rHuman EGF R/Fc Chimera, CF (R&D Systems Cat#344-ER) (human, UniProt P00533 25-645).
T18 construct: Bought recombinant protein; also called epidermal growth factor receptor; Fc part of the bought chimera not given
The assay is described as above.

In assay [19] the target is T19, rHuman Erythropoietin R/Fc Chimera, CF (R&D Systems Cat#963-ER) (human, UniProt P19235 25-250).
T19 construct: Bought recombinant protein; also called EPO R/Fc; Epo R; Fc part of the bought chimera not given
T19 sequence (looked up): T8 sequence (looked up)
Description: Multispot ECL (MSD), antigen spotted on plate, Fab 0.25 uM; blank spot 6344.

For assay [20], the target named is T20, rHuman EGF R/Fc Chimera, CF (R&D Systems Cat#344-ER) (human, UniProt P00533 25-645).
T20 construct: Bought recombinant protein; also called epidermal growth factor receptor (EGF R); Fc part of the bought chimera not given
Described as above.

Assay [21] concerns the target T21, rHuman IGF-1 sR, CF (R&D Systems Cat#391-GR) (human, UniProt P08069 31-932).
T21 construct: Bought recombinant soluble receptor; also called insulin-like growth factor-1 soluble receptor
The description is as above.

Assay [22] deals with T19, rHuman Erythropoietin R/Fc Chimera, CF …. Description: Multispot ECL (MSD), antigen spotted on plate, Fab 0.00391 uM; blank spot 576.
The target in assay [23] is T20, rHuman EGF R/Fc Chimera, CF (R&D …). Described as above.
The target in assay [24] is T21, rHuman IGF-1 sR, CF (R&D Systems …). The description is as above.
For assay [25], the target named is T19, rHuman Erythropoietin R/Fc Chimera, CF …. The assay is described as follows: Multispot ECL (MSD), antigen spotted on plate, Fab 0.01563 uM; blank spot 906.
For assay [26], the target named is T20, rHuman EGF R/Fc Chimera, CF (R&D …). The assay is described as above.
Assay [27] concerns the target T21, rHuman IGF-1 sR, CF (R&D Systems …). The description is as above.
The target in assay [28] is T19, rHuman Erythropoietin R/Fc Chimera, CF …. Description: Multispot ECL (MSD), antigen spotted on plate, Fab 0.0625 uM; blank spot 1738.
Assay [29] addresses T20, rHuman EGF R/Fc Chimera, CF (R&D …). The assay is described as above.
The target in assay [30] is T21, rHuman IGF-1 sR, CF (R&D Systems …). The assay is described as above.

B1: Fab VH3-23_IGHD2-21*01>3_IGHJ6*01 H100E/S108P/Y113G Y110E & V2-13_IGLJ2*01 (Fab, V domains shown)
VH: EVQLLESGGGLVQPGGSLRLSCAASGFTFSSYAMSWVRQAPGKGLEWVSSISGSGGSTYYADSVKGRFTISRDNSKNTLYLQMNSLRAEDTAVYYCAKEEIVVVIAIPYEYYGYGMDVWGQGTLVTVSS
VL: SSELTQDPAVSVALGQTVRITCQGDSLRSYYASWYQQKPGQAPVLVIYGKNNRPSGIPDRFSGSSSGNTASLTITGAQAEDEADYYCNSRDSSGNHLVVFGGGTKLTVL
notes: Tested as Fab made in E. coli: VH joined to CH1 (His and Flag tags), VL joined to lambda CL; also called EPG Y110E
For the molecule B1, the “ECL multispot signal (ratio to blank; column not labelled)” value in assay [1] worked out at 1.7; in [2], 1.6; in [3], 1.8; in [4], 1.5; in assay [5] it was 1.3; in assay [6], 1.4. The “ECL multispot signal (ratio to blank; column not labelled)” value amounted to 2 in [7], 2.2 in assay [8] and 1.8 in assay [9].

B2: Fab VH3-23_IGHD2-21*01>3_IGHJ6*01 H100E/S108P/Y113G Y59A & V2-13_IGLJ2*01 (Fab, V domains shown)
VH: EVQLLESGGGLVQPGGSLRLSCAASGFTFSSYAMSWVRQAPGKGLEWVSSISGSGGSTAYADSVKGRFTISRDNSKNTLYLQMNSLRAEDTAVYYCAKEEIVVVIAIPYYYYGYGMDVWGQGTLVTVSS
VL: B1 VL
notes: Tested as a Fab made in E. coli; also called EPG Y59A
In the case of B2, the “ECL signal/blank ratio (read-out not given)” value in assay [10] was found to be 3.3; in assay [11], 2.1; in [12], 1.4; in assay [13] it was 1.3; in assay [14], 2.4; in [15], 2.5. Besides, the “ECL signal/blank ratio (read-out not given)” value in [16] was 2.8; in [17] it was 1.6; in assay [18], 1.4.

B3: Fab VH1-46_IGHD2-15*01_IGHJ2*01 & L2_IGKJ1*01 (Fab, V domains shown)
VH: QVQLVQSGAEVKKPGASVKVSCKASGYTFTSYYMHWVRQAPGQGLEWMGIINPSGGSTSYAQKFQGRVTMTRDTSTSTVYMELSSLRSEDTAVYYCAREGYCSGGSCYSYWYFDLWGRGTLVTVSS
VL: not shown
notes: Germline library Fab made in E. coli; VH was cloned into Plasmid A (heavy chain constant region CH1, His6 and Flag tags) and the kappa VL into Plasmid C (kappa CL)
With B3, the ECL signal came out at 49200 in assay [19]; 117000 in assay [20]; 11000 in assay [21]; 5020 in assay [22]; 35900 in assay [23]; 822 in assay [24]. The ECL signal in assay [25] was found to be 11300; in assay [26], 70800; in [27], 1740; in assay [28], 21100; in assay [29] it was 94800; in assay [30], 3150.
